According to FireProtDB (doi:10.1074/jbc.m110728200):

Settings: Homo sapiens; pH 2.7; Thermal; DSC; Gly-HCl 0.05 M; whole UniProt chain shown

B1: Lysozyme C wild type, P61626 (protein)
chain: MKALIVLGLVLLSVTVQGKVFERCELARTLKRLGMDGYRGISLANWMCLAKWESGYNTRATNYNAGDRSTDYGIFQINSRYWCNDGKTPGAVNACHLSCSALLQDNIADAVACAKRVVRDPQGIRAWVAWRNRCQNRDVRQYVQGCGV
In the case of B1, the Tm is reported as 64.9 °C, the “heat capacity change of unfolding” value is reported as 1.58 kcal/mol/K and the “unfolding enthalpy (calorimetric)” value is reported as 114 kcal/mol.
